# Measurements as given in patent publication US20140087995A1 (published 2014).
# Numbered stars: 1 amine (or outer) side, 2 acyl side, 3 side chain; on linkers, the order of the positions; unused ones are H or OH. Bridge positions count the residues as written; N and C are the ends. Side chains are listed from the residue outwards. Ends that are not written are not given here. * marks the point of attachment. C20 diacid = O=C(O)CCCCCCCCCCCCCCCCCCC(=O)*; γGlu = O=C(O)[C@H](CCC(=O)[*:2])N[*:1]
# B1: N^-1-[(4S)-4-carboxy-4-(19-carboxynonadecanoylamino)butanoyl]-Gly[Arg1,Ala14,Arg17,Pro21,Pro27,Pro34]-h-amylin (peptide)
# peptide: {C20 diacid-γGlu}-GRCNTATCATQRLAAFLRHSSPNFGAIPSSTNVGPNTY-NH2
# modifications: disulfide 3-8 (inferred)
# B2: N^ε1-[(4S)-4-carboxy-4-(19-carboxynonadecanoylamino)butanoyl]-[Glu14,Arg17,Pro21,Pro27,Pro34,Pro37]-h-amylin (peptide)
# peptide: K([γGlu-C20 diacid])CNTATCATQRLAEFLRHSSPNFGAIPSSTNVGPNTP-NH2
# modifications: disulfide 2-7; N-terminus assumed
# SMILES: CC[C@H](C)[C@H](NC(=O)[C@H](C)NC(=O)CNC(=O)[C@H](Cc1ccccc1)NC(=O)[C@H](CC(N)=O)NC(=O)[C@@H]1CCCN1C(=O)[C@H](CO)NC(=O)[C@H](CO)NC(=O)[C@H](Cc1c[nH]cn1)NC(=O)[C@H](CCCNC(=N)N)NC(=O)[C@H](CC(C)C)NC(=O)[C@H](Cc1ccccc1)NC(=O)[C@H](CCC(=O)O)NC(=O)[C@H](C)NC(=O)[C@H](CC(C)C)NC(=O)[C@H](CCCNC(=N)N)NC(=O)[C@H](CCC(N)=O)NC(=O)[C@@H](NC(=O)[C@H](C)NC(=O)[C@@H]1CSSC[C@H](NC(=O)[C@@H](N)CCCCNC(=O)CC[C@H](NC(=O)CCCCCCCCCCCCCCCCCCC(=O)O)C(=O)O)C(=O)N[C@@H](CC(N)=O)C(=O)N[C@@H]([C@@H](C)O)C(=O)N[C@@H](C)C(=O)N[C@@H]([C@@H](C)O)C(=O)N1)[C@@H](C)O)C(=O)N1CCC[C@H]1C(=O)N[C@@H](CO)C(=O)N[C@@H](CO)C(=O)N[C@H](C(=O)N[C@@H](CC(N)=O)C(=O)N[C@H](C(=O)NCC(=O)N1CCC[C@H]1C(=O)N[C@@H](CC(N)=O)C(=O)N[C@H](C(=O)N1CCC[C@H]1C(N)=O)[C@@H](C)O)C(C)C)[C@@H](C)O
# B3: N^ε1-[(4S)-4-carboxy-4-(19-carboxynonadecanoylamino)butanoyl]-[His14,Arg17,Pro21,Pro27,Pro34,Pro37]-h-amylin (peptide)
# peptide: K([γGlu-C20 diacid])CNTATCATQRLAHFLRHSSPNFGAIPSSTNVGPNTP-NH2
# modifications: disulfide 2-7; N-terminus assumed
# SMILES: CC[C@H](C)[C@H](NC(=O)[C@H](C)NC(=O)CNC(=O)[C@H](Cc1ccccc1)NC(=O)[C@H](CC(N)=O)NC(=O)[C@@H]1CCCN1C(=O)[C@H](CO)NC(=O)[C@H](CO)NC(=O)[C@H](Cc1c[nH]cn1)NC(=O)[C@H](CCCNC(=N)N)NC(=O)[C@H](CC(C)C)NC(=O)[C@H](Cc1ccccc1)NC(=O)[C@H](Cc1c[nH]cn1)NC(=O)[C@H](C)NC(=O)[C@H](CC(C)C)NC(=O)[C@H](CCCNC(=N)N)NC(=O)[C@H](CCC(N)=O)NC(=O)[C@@H](NC(=O)[C@H](C)NC(=O)[C@@H]1CSSC[C@H](NC(=O)[C@@H](N)CCCCNC(=O)CC[C@H](NC(=O)CCCCCCCCCCCCCCCCCCC(=O)O)C(=O)O)C(=O)N[C@@H](CC(N)=O)C(=O)N[C@@H]([C@@H](C)O)C(=O)N[C@@H](C)C(=O)N[C@@H]([C@@H](C)O)C(=O)N1)[C@@H](C)O)C(=O)N1CCC[C@H]1C(=O)N[C@@H](CO)C(=O)N[C@@H](CO)C(=O)N[C@H](C(=O)N[C@@H](CC(N)=O)C(=O)N[C@H](C(=O)NCC(=O)N1CCC[C@H]1C(=O)N[C@@H](CC(N)=O)C(=O)N[C@H](C(=O)N1CCC[C@H]1C(N)=O)[C@@H](C)O)C(C)C)[C@@H](C)O
# B4: N^ε1-[(4S)-4-carboxy-4-[[(4S)-4-carboxy-4-(19-carboxynonadecanoylamino)butanoyl]amino]butanoyl]-[Glu14,Arg17,Pro21,Pro27,Pro37]-h-amylin (peptide)
# peptide: K([γGlu-γGlu-C20 diacid])CNTATCATQRLAEFLRHSSPNFGAIPSSTNVGSNTP-NH2
# modifications: disulfide 2-7; N-terminus assumed
# SMILES: CC[C@H](C)[C@H](NC(=O)[C@H](C)NC(=O)CNC(=O)[C@H](Cc1ccccc1)NC(=O)[C@H](CC(N)=O)NC(=O)[C@@H]1CCCN1C(=O)[C@H](CO)NC(=O)[C@H](CO)NC(=O)[C@H](Cc1c[nH]cn1)NC(=O)[C@H](CCCNC(=N)N)NC(=O)[C@H](CC(C)C)NC(=O)[C@H](Cc1ccccc1)NC(=O)[C@H](CCC(=O)O)NC(=O)[C@H](C)NC(=O)[C@H](CC(C)C)NC(=O)[C@H](CCCNC(=N)N)NC(=O)[C@H](CCC(N)=O)NC(=O)[C@@H](NC(=O)[C@H](C)NC(=O)[C@@H]1CSSC[C@H](NC(=O)[C@@H](N)CCCCNC(=O)CC[C@H](NC(=O)CC[C@H](NC(=O)CCCCCCCCCCCCCCCCCCC(=O)O)C(=O)O)C(=O)O)C(=O)N[C@@H](CC(N)=O)C(=O)N[C@@H]([C@@H](C)O)C(=O)N[C@@H](C)C(=O)N[C@@H]([C@@H](C)O)C(=O)N1)[C@@H](C)O)C(=O)N1CCC[C@H]1C(=O)N[C@@H](CO)C(=O)N[C@@H](CO)C(=O)N[C@H](C(=O)N[C@@H](CC(N)=O)C(=O)N[C@H](C(=O)NCC(=O)N[C@@H](CO)C(=O)N[C@@H](CC(N)=O)C(=O)N[C@H](C(=O)N1CCC[C@H]1C(N)=O)[C@@H](C)O)C(C)C)[C@@H](C)O
# notes: also called compound 13
# B5: N^ε1-[(4S)-4-carboxy-4-[[(4S)-4-carboxy-4-(19-carboxynonadecanoylamino)butanoyl]amino]butanoyl]-[Glu14,Arg17,Pro21,Pro27,Pro34,Glu35,Pro37]-h-amylin (peptide)
# peptide: K([γGlu-γGlu-C20 diacid])CNTATCATQRLAEFLRHSSPNFGAIPSSTNVGPETP-NH2
# modifications: disulfide 2-7; N-terminus assumed
# SMILES: CC[C@H](C)[C@H](NC(=O)[C@H](C)NC(=O)CNC(=O)[C@H](Cc1ccccc1)NC(=O)[C@H](CC(N)=O)NC(=O)[C@@H]1CCCN1C(=O)[C@H](CO)NC(=O)[C@H](CO)NC(=O)[C@H](Cc1c[nH]cn1)NC(=O)[C@H](CCCNC(=N)N)NC(=O)[C@H](CC(C)C)NC(=O)[C@H](Cc1ccccc1)NC(=O)[C@H](CCC(=O)O)NC(=O)[C@H](C)NC(=O)[C@H](CC(C)C)NC(=O)[C@H](CCCNC(=N)N)NC(=O)[C@H](CCC(N)=O)NC(=O)[C@@H](NC(=O)[C@H](C)NC(=O)[C@@H]1CSSC[C@H](NC(=O)[C@@H](N)CCCCNC(=O)CC[C@H](NC(=O)CC[C@H](NC(=O)CCCCCCCCCCCCCCCCCCC(=O)O)C(=O)O)C(=O)O)C(=O)N[C@@H](CC(N)=O)C(=O)N[C@@H]([C@@H](C)O)C(=O)N[C@@H](C)C(=O)N[C@@H]([C@@H](C)O)C(=O)N1)[C@@H](C)O)C(=O)N1CCC[C@H]1C(=O)N[C@@H](CO)C(=O)N[C@@H](CO)C(=O)N[C@H](C(=O)N[C@@H](CC(N)=O)C(=O)N[C@H](C(=O)NCC(=O)N1CCC[C@H]1C(=O)N[C@@H](CCC(=O)O)C(=O)N[C@H](C(=O)N1CCC[C@H]1C(N)=O)[C@@H](C)O)C(C)C)[C@@H](C)O
# B6: N^ε1-[(4S)--4-carboxy-4-(19-carboxynonadecanoylamino)butanoyl]-[Glu14,Arg17,Pro21,Pro27,Pro37]-h-amylin (peptide)
# peptide: K([γGlu-C20 diacid])CNTATCATQRLAEFLRHSSPNFGAIPSSTNVGSNTP-NH2
# modifications: disulfide 2-7; N-terminus assumed
# SMILES: CC[C@H](C)[C@H](NC(=O)[C@H](C)NC(=O)CNC(=O)[C@H](Cc1ccccc1)NC(=O)[C@H](CC(N)=O)NC(=O)[C@@H]1CCCN1C(=O)[C@H](CO)NC(=O)[C@H](CO)NC(=O)[C@H](Cc1c[nH]cn1)NC(=O)[C@H](CCCNC(=N)N)NC(=O)[C@H](CC(C)C)NC(=O)[C@H](Cc1ccccc1)NC(=O)[C@H](CCC(=O)O)NC(=O)[C@H](C)NC(=O)[C@H](CC(C)C)NC(=O)[C@H](CCCNC(=N)N)NC(=O)[C@H](CCC(N)=O)NC(=O)[C@@H](NC(=O)[C@H](C)NC(=O)[C@@H]1CSSC[C@H](NC(=O)[C@@H](N)CCCCNC(=O)CC[C@H](NC(=O)CCCCCCCCCCCCCCCCCCC(=O)O)C(=O)O)C(=O)N[C@@H](CC(N)=O)C(=O)N[C@@H]([C@@H](C)O)C(=O)N[C@@H](C)C(=O)N[C@@H]([C@@H](C)O)C(=O)N1)[C@@H](C)O)C(=O)N1CCC[C@H]1C(=O)N[C@@H](CO)C(=O)N[C@@H](CO)C(=O)N[C@H](C(=O)N[C@@H](CC(N)=O)C(=O)N[C@H](C(=O)NCC(=O)N[C@@H](CO)C(=O)N[C@@H](CC(N)=O)C(=O)N[C@H](C(=O)N1CCC[C@H]1C(N)=O)[C@@H](C)O)C(C)C)[C@@H](C)O
# notes: also called compound 12
# B7: N^ε1-[(4S)-4-carboxy-4-(19-carboxynonadecanoylamino)butanoyl]-[His14,Arg17,Pro21,Pro27,Pro31,Pro34]-h-amylin (peptide)
# peptide: K([γGlu-C20 diacid])CNTATCATQRLAHFLRHSSPNFGAIPSSTPVGPNTY-NH2
# modifications: disulfide 2-7; N-terminus assumed
# SMILES: CC[C@H](C)[C@H](NC(=O)[C@H](C)NC(=O)CNC(=O)[C@H](Cc1ccccc1)NC(=O)[C@H](CC(N)=O)NC(=O)[C@@H]1CCCN1C(=O)[C@H](CO)NC(=O)[C@H](CO)NC(=O)[C@H](Cc1c[nH]cn1)NC(=O)[C@H](CCCNC(=N)N)NC(=O)[C@H](CC(C)C)NC(=O)[C@H](Cc1ccccc1)NC(=O)[C@H](Cc1c[nH]cn1)NC(=O)[C@H](C)NC(=O)[C@H](CC(C)C)NC(=O)[C@H](CCCNC(=N)N)NC(=O)[C@H](CCC(N)=O)NC(=O)[C@@H](NC(=O)[C@H](C)NC(=O)[C@@H]1CSSC[C@H](NC(=O)[C@@H](N)CCCCNC(=O)CC[C@H](NC(=O)CCCCCCCCCCCCCCCCCCC(=O)O)C(=O)O)C(=O)N[C@@H](CC(N)=O)C(=O)N[C@@H]([C@@H](C)O)C(=O)N[C@@H](C)C(=O)N[C@@H]([C@@H](C)O)C(=O)N1)[C@@H](C)O)C(=O)N1CCC[C@H]1C(=O)N[C@@H](CO)C(=O)N[C@@H](CO)C(=O)N[C@H](C(=O)N1CCC[C@H]1C(=O)N[C@H](C(=O)NCC(=O)N1CCC[C@H]1C(=O)N[C@@H](CC(N)=O)C(=O)N[C@H](C(=O)N[C@@H](Cc1ccc(O)cc1)C(N)=O)[C@@H](C)O)C(C)C)[C@@H](C)O
# Molecular target: T1, human calcitonin receptor (human, UniProt P30988 25-474)
# T1 sequence (looked up): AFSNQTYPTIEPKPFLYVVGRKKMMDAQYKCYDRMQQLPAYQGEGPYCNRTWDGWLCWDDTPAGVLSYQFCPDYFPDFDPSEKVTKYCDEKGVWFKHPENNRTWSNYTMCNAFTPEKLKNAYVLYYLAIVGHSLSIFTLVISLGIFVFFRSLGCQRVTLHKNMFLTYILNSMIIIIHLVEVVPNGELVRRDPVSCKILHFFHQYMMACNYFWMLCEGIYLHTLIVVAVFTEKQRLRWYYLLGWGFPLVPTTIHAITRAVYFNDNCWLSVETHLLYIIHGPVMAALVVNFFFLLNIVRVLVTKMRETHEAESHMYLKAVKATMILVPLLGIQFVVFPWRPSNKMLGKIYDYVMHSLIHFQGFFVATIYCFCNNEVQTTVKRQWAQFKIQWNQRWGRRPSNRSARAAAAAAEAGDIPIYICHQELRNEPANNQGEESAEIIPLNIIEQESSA
# Assay: cell-based or functional assay
Binder,Ratio hCT/hAmylin funct. [ratio],hCTR funct. EC50 (pM)
B1,2.1,–
B2,0.9,–
B3,0.8,–
B4,2.2,–
B5,0.8,102
B6,1.8,–
B7,4.9,–

# Molecular target: T2, human amylin receptor (amylin 3(a) receptor: human calcitonin receptor with RAMP-3) (human, UniProt P30988 25-474; O60896 24-148, limits assumed)
# T2 construct: whole, on cells; Whole cells in the luciferase assay (Assay II a); also called hAmylin-R; hAmylinR
# T2 sequence (looked up) 1: T1 sequence (looked up)
# T2 sequence (looked up) 2: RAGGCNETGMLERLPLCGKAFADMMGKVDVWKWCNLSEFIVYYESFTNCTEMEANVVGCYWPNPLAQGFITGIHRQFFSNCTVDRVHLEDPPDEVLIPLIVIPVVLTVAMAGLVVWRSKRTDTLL
# Assay: SPA competition binding on membranes of BHK cells with human calcitonin receptor + RAMP-3; displacement of 125I-rat amylin (Assay V)
# In short: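 Cell membranes were prepared by homogenisation in Na-HEPES/EDTA buffer, pH 7.4, and stored at −80° C. They were then coupled to SPA beads at 35 ng/μL final and exposed to compounds in assay buffer containing CaCl2, MgCl₂, OA and Tween20. After 120 min at 25° C, plates were counted and IC₅₀ derived.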
row,Binder,IC50 [nM]
1,B1,0.114
2,B2,0.214
3,B3,0.131
4,B4,0.264
5,B5,0.533
6,B6,0.142
7,B7,0.082
